What was measured:
VEGF-A165 (Homo sapiens) = system: T1, VEGF-A165 (Homo sapiens); conditions: all G 2'-F; A,C,U 2'-OMe; Sp3 (1,3-propanediol) joins the two parts (position 9); 5' C6NH2; 3' idT; direct TR-FRET, RT
T1 sequence: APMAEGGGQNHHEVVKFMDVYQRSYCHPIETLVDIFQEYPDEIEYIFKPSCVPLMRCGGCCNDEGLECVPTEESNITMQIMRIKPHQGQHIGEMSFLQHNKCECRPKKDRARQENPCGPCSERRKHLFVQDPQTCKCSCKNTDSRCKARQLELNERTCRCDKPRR

VEGF-A121 (Homo sapiens) = target: T2, VEGF-A121 (Homo sapiens) (UniProt P15692); conditions: all G 2'-F; A,C,U 2'-OMe; Sp3 (1,3-propanediol) joins the two parts (position 9); 5' C6NH2; 3' idT; direct TR-FRET, RT
T2 sequence: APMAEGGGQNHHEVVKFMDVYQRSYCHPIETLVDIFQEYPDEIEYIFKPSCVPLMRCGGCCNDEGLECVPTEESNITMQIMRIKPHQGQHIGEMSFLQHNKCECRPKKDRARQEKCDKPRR

For “AGGCCGCCCCGCGCGGAGGGGUUUCAUUAUCCCGUUUGGCGGCUU [Aptamer 47]”, the Kd (VEGF-A165 (Homo sapiens)) was 2.1 nM and the Kd (VEGF-A121 (Homo sapiens)) was 11 nM.

From patent publication US20220098591
